Test results published in publication PMC3637846 (Nature, 2013).
Substitutions are numbered along the chain they refer to.

B1: inferred intermediate antibody I1 (antibody, V domains shown)
V domain 1: QVQLQESGPGVVKSSETLSLTCTVSGGSMGGTYWSWLRLSPGKGLEWIGYIFHTGHTNYSPSLKGRVSISVDTSEDQFSLRLRSVTAADTAVYFCASLPRGQLVNAYFRNWGRGTLVSVTA
V domain 2: SYELTQPPSVSVSPGQTATITCSGDKVASKNVCWYQVKPGQSPEVVMYENYKRPSGIPDRFSGSKSGSTATLTIRGTQATDEADYYCQVWDSFSTFVFGSGTQVTV
B2: CH104 (full-length IgG1 recombinant mAb) (antibody, V domains shown)
V domain 1: B1 V domain 1 with S60N, K64E
V domain 2: B1 V domain 2 with P54A
B3: CH103 (full-length IgG1 recombinant mAb) (antibody, V domains shown)
V domain 1: B1 V domain 1 with H56E, T115S
V domain 2: SYELTQPPSVSVSPGQTATITCSGASTNVCWYQVKPGQSPEVVIFENYKRPSGIPDRFSGSKSGSTATLTIRGTQAIDEADYYCQVWDSFSTFVFGSGTQVTV
B4: CH103 unmutated common ancestor (UCA) mAb (antibody, V domains shown)
VH: QVQLQESGPGLVKPSETLSLTCTVSGGSISSYYWSWIRQPPGKGLEWIGYIYYSGSTNYNPSLKSRVTISVDTSKNQFSLKLSSVTAADTAVYYCASLPRGQLVNAYFDYWGQGTLVTVSS
VL: not shown

Experiments:
[1] = target: CH505 transmitted/founder (T/F) Env gp140 (HIV-1 subtype C, CH505 (703010505) …, strain); experiment: SPR
[2] = target: heterologous T/F Env C.1086 (HIV-1 subtype C, isolate 1086 (T/F), UniProt C6G099, strain); experiment: ELISA

| Binder | binding result [1] | binding result [2] |
| --- | --- | --- |
| B1 | binds | – |
| B2 | binds | – |
| B3 | binds | – |
| B4 | – | no binding |
